In this test the target is T1, PatZ-L813o-NBAK (E. coli, UniProt P76594 1-886, L813o-NBAK, o-NBAK (o-nitrobenzyl alcohol-derived lysine, unnatural amino acid photo-crosslinker) at 813).
T1 construct: PatZ, protein lysine acetyltransferase of E. coli, amber codon at L813 read as o-NBAK; o-NBAK is a lysine derivative; also called PatZ-L813o-NBAK mutant; o-NBAK encoded enzyme; source: E. coli BL21(DE3), in living cells; also purified (Ni-NTA) for in vitro crosslinking
T1 sequence (looked up): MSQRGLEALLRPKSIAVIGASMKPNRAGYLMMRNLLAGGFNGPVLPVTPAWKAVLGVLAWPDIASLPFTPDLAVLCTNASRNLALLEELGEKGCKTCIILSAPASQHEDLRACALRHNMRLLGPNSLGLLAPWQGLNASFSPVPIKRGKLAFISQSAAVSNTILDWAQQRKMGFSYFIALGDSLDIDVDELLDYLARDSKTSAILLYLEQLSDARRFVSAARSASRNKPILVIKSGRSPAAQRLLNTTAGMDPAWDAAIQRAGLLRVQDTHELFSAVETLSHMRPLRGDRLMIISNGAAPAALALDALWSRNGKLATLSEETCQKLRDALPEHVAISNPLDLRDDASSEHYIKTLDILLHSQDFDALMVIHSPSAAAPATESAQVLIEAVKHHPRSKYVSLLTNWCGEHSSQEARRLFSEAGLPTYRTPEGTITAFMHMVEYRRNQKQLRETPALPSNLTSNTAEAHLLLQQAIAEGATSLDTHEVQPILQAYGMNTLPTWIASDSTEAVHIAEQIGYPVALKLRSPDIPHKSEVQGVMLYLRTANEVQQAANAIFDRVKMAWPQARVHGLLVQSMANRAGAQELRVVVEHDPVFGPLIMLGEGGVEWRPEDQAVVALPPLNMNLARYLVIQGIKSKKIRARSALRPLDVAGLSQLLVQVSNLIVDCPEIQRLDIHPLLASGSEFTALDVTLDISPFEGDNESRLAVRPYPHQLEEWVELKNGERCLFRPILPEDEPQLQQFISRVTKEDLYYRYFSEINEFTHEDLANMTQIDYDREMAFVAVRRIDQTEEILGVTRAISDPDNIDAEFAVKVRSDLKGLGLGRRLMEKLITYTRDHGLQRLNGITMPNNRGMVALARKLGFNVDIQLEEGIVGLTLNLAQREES
The test can be described thus: cross-linking; in vitro: purified o-NBAK enzyme mixed with purified partner protein in PBS 150 mM NaCl pH 7.5, 365 nm UV 15 min on ice, SDS-PAGE, extra band cut, LC-MS/MS of crosslinked peptides. Conditions: both partners purified.

B1: DnaJ (purified recombinant) (natural protein, E. coli, UniProt P08622 1-376, looked up)
chain: MAKQDYYEILGVSKTAEEREIRKAYKRLAMKYHPDRNQGDKEAEAKFKEIKEAYEVLTDSQKRAAYDQYGHAAFEQGGMGGGGFGGGADFSDIFGDVFGDIFGGGRGRQRAARGADLRYNMELTLEEAVRGVTKEIRIPTLEECDVCHGSGAKPGTQPQTCPTCHGSGQVQMRQGFFAVQQTCPHCQGRGTLIKDPCNKCHGHGRVERSKTLSVKIPAGVDTGDRIRLAGEGEAGEHGAPAGDLYVQVQVKQHPIFEREGNNLYCEVPINFAMAALGGEIEVPTLDGRVKLKVPGETQTGKLFRMRGKGVKSVRGGAQGDLLCRVVVETPVGLNERQKQLLQELQESFGGPTGEHNSPRSKSFFDGVKKFFDDLTR
notes: DnaJ, E. coli; may be in the Supplementary Information
In the case of B1, the binding result is listed as “binds”.

Values taken from paper PMC10874396, “Spatiotemporal and direct capturing global substrates of lysine-modifying enzymes in living cells” (Nature Communications, 2024).
